Test results reported in the supplement of paper PMC9112550, “Optimization of the antimicrobial peptide Bac7 by deep mutational scanning” (BMC Biology, 2022).

system: Escherichia coli TOP10; experiment: shrunken log2 fold change of peptide-encoding DNA abundance (4.5 h post-induction vs induction); higher = less antimicrobial activity (less host growth inhibition); conditions: time post-induction: 4.5 h; library: site-saturation at positions 5, 18, 19, 20
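Also: peptides expressed intracellularly from a pBAD plasmid library in pooled LB shake-flask culture, induced with 0.3% L-arabinose, DNA abundance read by NGS, three biological replicates, DESeq2 with apeglm shrinkage.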

Question: With RRIRQRPPRLPRPRPRPLYIPRP as the sequence, how does the “shrunken log2 fold change” value read?
Answer: -0.659

Question: Which “shrunken log2 fold change” value does the source give for RRIRWRPPRLPRPRPRPDWVPRP here?
Answer: 0.253

Question: Which “shrunken log2 fold change” value does the source give for RRIRIRPPRLPRPRPRPGQRPRP here?
Answer: -0.0709

Question: How did the “shrunken log2 fold change” value turn out when RRIRWRPPRLPRPRPRPYNCPRP was run?
Answer: -0.331

Question: RRIRWRPPRLPRPRPRPFSWPRP was tested. Which “shrunken log2 fold change” value did it give?
Answer: 0.0632

Question: For RRIRDRPPRLPRPRPRPRICPRP, which “shrunken log2 fold change” value is on record?
Answer: 0.00396

Question: How did the “shrunken log2 fold change” value turn out when RRIRIRPPRLPRPRPRPRTKPRP was run?
Answer: 0.161

Question: RRIRDRPPRLPRPRPRPYAEPRP was tested. Which “shrunken log2 fold change” value did it give?
Answer: 0.247

Question: Which “shrunken log2 fold change” value does the source give for RRIRWRPPRLPRPRPRPKQCPRP here?
Answer: 0.31

Question: Which “shrunken log2 fold change” value does the source give for RRIRCRPPRLPRPRPRPSAFPRP here?
Answer: 0.426

Question: How did the “shrunken log2 fold change” value turn out when RRIRARPPRLPRPRPRPDEIPRP was run?
Answer: 0.357

Question: Which “shrunken log2 fold change” value does the source give for RRIRCRPPRLPRPRPRPSQQPRP here?
Answer: -0.0757

Question: With RRIRIRPPRLPRPRPRPVWIPRP as the sequence, how does the “shrunken log2 fold change” value read?
Answer: -0.242

Question: Which “shrunken log2 fold change” value does the source give for RRIRIRPPRLPRPRPRPQGTPRP here?
Answer: -0.272

Question: For RRIRERPPRLPRPRPRPYRQPRP, which “shrunken log2 fold change” value is on record?
Answer: -0.264

Question: Which “shrunken log2 fold change” value does the source give for RRIRQRPPRLPRPRPRPDGKPRP here?
Answer: 0.0269

Question: For RRIRWRPPRLPRPRPRPVPFPRP, which “shrunken log2 fold change” value is on record?
Answer: 0.122

Question: For RRIRLRPPRLPRPRPRPLVTPRP, which “shrunken log2 fold change” value is on record?
Answer: 0.000277

Question: How did the “shrunken log2 fold change” value turn out when RRIRMRPPRLPRPRPRPWFMPRP was run?
Answer: 0.363

Question: With RRIRGRPPRLPRPRPRPTYNPRP as the sequence, how does the “shrunken log2 fold change” value read?
Answer: 0.0375

Question: With RRIRTRPPRLPRPRPRPGTSPRP as the sequence, how does the “shrunken log2 fold change” value read?
Answer: -0.043

Question: With RRIRIRPPRLPRPRPRPYVMPRP as the sequence, how does the “shrunken log2 fold change” value read?
Answer: -0.274

Question: With RRIRYRPPRLPRPRPRPEFLPRP as the sequence, how does the “shrunken log2 fold change” value read?
Answer: -0.252

Question: How did the “shrunken log2 fold change” value turn out when RRIRGRPPRLPRPRPRPDYVPRP was run?
Answer: 0.66

Question: With RRIRTRPPRLPRPRPRPYCRPRP as the sequence, how does the “shrunken log2 fold change” value read?
Answer: -0.149

Question: With RRIRFRPPRLPRPRPRPYCYPRP as the sequence, how does the “shrunken log2 fold change” value read?
Answer: -0.749

Question: Which “shrunken log2 fold change” value does the source give for RRIRGRPPRLPRPRPRPIQNPRP here?
Answer: 0.0261

Question: How did the “shrunken log2 fold change” value turn out when RRIRDRPPRLPRPRPRPQNMPRP was run?
Answer: -0.574

Question: Which “shrunken log2 fold change” value does the source give for RRIRVRPPRLPRPRPRPHNWPRP here?
Answer: -0.0818

Question: With RRIRTRPPRLPRPRPRPPLGPRP as the sequence, how does the “shrunken log2 fold change” value read?
Answer: 0.328

Question: With RRIRPRPPRLPRPRPRPAIPPRP as the sequence, how does the “shrunken log2 fold change” value read?
Answer: -0.0146

Question: Which “shrunken log2 fold change” value does the source give for RRIRKRPPRLPRPRPRPCRGPRP here?
Answer: -0.115

Question: With RRIRPRPPRLPRPRPRPQQKPRP as the sequence, how does the “shrunken log2 fold change” value read?
Answer: 0.433

Question: RRIRPRPPRLPRPRPRPCIDPRP was tested. Which “shrunken log2 fold change” value did it give?
Answer: -0.742

Question: For RRIRSRPPRLPRPRPRPSFMPRP, which “shrunken log2 fold change” value is on record?
Answer: -0.335

Question: RRIRLRPPRLPRPRPRPQTHPRP was tested. Which “shrunken log2 fold change” value did it give?
Answer: 0.0338

Question: For RRIRERPPRLPRPRPRPPLCPRP, which “shrunken log2 fold change” value is on record?
Answer: 0.124

Question: How did the “shrunken log2 fold change” value turn out when RRIRWRPPRLPRPRPRPWNTPRP was run?
Answer: -0.195

Question: RRIRTRPPRLPRPRPRPEVAPRP was tested. Which “shrunken log2 fold change” value did it give?
Answer: 0.0197

Question: With RRIRIRPPRLPRPRPRPTCCPRP as the sequence, how does the “shrunken log2 fold change” value read?
Answer: 0.111

Question: How did the “shrunken log2 fold change” value turn out when RRIRCRPPRLPRPRPRPYNHPRP was run?
Answer: -0.416

Question: With RRIRERPPRLPRPRPRPFSSPRP as the sequence, how does the “shrunken log2 fold change” value read?
Answer: -0.0152

Question: Which “shrunken log2 fold change” value does the source give for RRIRFRPPRLPRPRPRPAITPRP here?
Answer: -0.136

Question: For RRIRIRPPRLPRPRPRPHNKPRP, which “shrunken log2 fold change” value is on record?
Answer: -0.976

Question: With RRIRCRPPRLPRPRPRPGPIPRP as the sequence, how does the “shrunken log2 fold change” value read?
Answer: 0.367

Question: For RRIRFRPPRLPRPRPRPQRFPRP, which “shrunken log2 fold change” value is on record?
Answer: 0.0542

Question: Which “shrunken log2 fold change” value does the source give for RRIRTRPPRLPRPRPRPRFFPRP here?
Answer: 0.0438

Question: Which “shrunken log2 fold change” value does the source give for RRIRFRPPRLPRPRPRPERYPRP here?
Answer: 0.0915

Question: With RRIRDRPPRLPRPRPRPINQPRP as the sequence, how does the “shrunken log2 fold change” value read?
Answer: -0.389

Question: How did the “shrunken log2 fold change” value turn out when RRIRKRPPRLPRPRPRPVIEPRP was run?
Answer: 0.15

Question: With RRIRPRPPRLPRPRPRPFDYPRP as the sequence, how does the “shrunken log2 fold change” value read?
Answer: -0.391

Question: For RRIRVRPPRLPRPRPRPVRSPRP, which “shrunken log2 fold change” value is on record?
Answer: 0.522

Question: How did the “shrunken log2 fold change” value turn out when RRIRIRPPRLPRPRPRPDMVPRP was run?
Answer: 0.0032

Question: RRIRCRPPRLPRPRPRPGCKPRP was tested. Which “shrunken log2 fold change” value did it give?
Answer: 0.0416

Question: Which “shrunken log2 fold change” value does the source give for RRIRMRPPRLPRPRPRPKNAPRP here?
Answer: 0.901

Question: With RRIRYRPPRLPRPRPRPLEYPRP as the sequence, how does the “shrunken log2 fold change” value read?
Answer: -0.443

Question: RRIRRRPPRLPRPRPRPGSLPRP was tested. Which “shrunken log2 fold change” value did it give?
Answer: -0.00238

Question: Which “shrunken log2 fold change” value does the source give for RRIRHRPPRLPRPRPRPQVFPRP here?
Answer: -0.00865

Question: RRIRHRPPRLPRPRPRPKSGPRP was tested. Which “shrunken log2 fold change” value did it give?
Answer: -0.242

Question: RRIRTRPPRLPRPRPRPCFMPRP was tested. Which “shrunken log2 fold change” value did it give?
Answer: -0.153

Question: With RRIRSRPPRLPRPRPRPVYHPRP as the sequence, how does the “shrunken log2 fold change” value read?
Answer: 0.0286

Question: RRIRARPPRLPRPRPRPTFMPRP was tested. Which “shrunken log2 fold change” value did it give?
Answer: 0.106

Question: For RRIRQRPPRLPRPRPRPQDSPRP, which “shrunken log2 fold change” value is on record?
Answer: -0.297

Question: RRIRHRPPRLPRPRPRPGHFPRP was tested. Which “shrunken log2 fold change” value did it give?
Answer: 0.0387

Question: How did the “shrunken log2 fold change” value turn out when RRIRLRPPRLPRPRPRPQAVPRP was run?
Answer: 0.0328

Question: RRIRSRPPRLPRPRPRPQHCPRP was tested. Which “shrunken log2 fold change” value did it give?
Answer: -0.0942

Question: RRIRDRPPRLPRPRPRPKQFPRP was tested. Which “shrunken log2 fold change” value did it give?
Answer: -0.00831

Question: RRIRRRPPRLPRPRPRPGHCPRP was tested. Which “shrunken log2 fold change” value did it give?
Answer: 0.0653

Question: How did the “shrunken log2 fold change” value turn out when RRIRMRPPRLPRPRPRPMRQPRP was run?
Answer: -0.0415

Question: Which “shrunken log2 fold change” value does the source give for RRIRQRPPRLPRPRPRPYMIPRP here?
Answer: 0.00875

Question: With RRIRLRPPRLPRPRPRPDQLPRP as the sequence, how does the “shrunken log2 fold change” value read?
Answer: -0.0435

Question: For RRIRVRPPRLPRPRPRPFPCPRP, which “shrunken log2 fold change” value is on record?
Answer: -0.00113

Question: RRIRRRPPRLPRPRPRPSNLPRP was tested. Which “shrunken log2 fold change” value did it give?
Answer: 0.112

Question: With RRIRWRPPRLPRPRPRPVRVPRP as the sequence, how does the “shrunken log2 fold change” value read?
Answer: 0.214

Question: RRIRFRPPRLPRPRPRPPTFPRP was tested. Which “shrunken log2 fold change” value did it give?
Answer: -0.0402
